Experimental data reported in US20240310383A1, “Proteomic Risk Score For Osteoarthritis (OA)” (Regeneron Pharmaceuticals, Inc., priority 2023, published 2024).

Tested on: patients with pain due to osteoarthritis of the knee or hip
Test: WOMAC pain and functional score improvement in R475-OA-1688 clinical trial, stratified by OA proteomic risk score groups
Assay type: in vivo, human

B1: fasinumab (antibody, chains of the INN, looked up, V domains shown)
VH: QVQLVQSGAEVKKPGASVKVSCKVSGFTLTELSIHWVRQAPGKGLEWMGGFDPEDGETIYAQKFQGRVTMTEDTSTDTAYMELTSLRSEDTAVYYCSTIFGVVTNFDNWGQGTLVTVSS
VL: DIQMTQSPSSLSASAGDRVTITCRASQAIRNDLGWYQQKPGKAPKRLIYAAFNLQSGVPSRFSGSGSGTEFTLTISSLQPEDLASYYCQQYNRYPWTFGQGTKVEIK
notes: anti-NGF antibody (NGF antagonist) tested in phase 3 study R475-OA-1688
- efficacy compared with both NSAIDs or placebo treated patients (Fasinumab 1q4w, OA proteomic score high risk group): has efficacy benefits
- efficacy compared with either NSAIDs or placebo (fasinumab 1q4w, patients in 1st to 3rd OA proteomic score quartiles): maintains efficacy superiority
- efficacy profile (both WOMAC pain and WOMAC functional scores) (patients in 1st to 3rd OA proteomic score quartiles, fasinumab 1q4w, FIG. 9 and FIG. 10): better efficacy profile
